Target: insulin-like growth factor type 1 (IGF-1)

B1: dipeptidyl-peptidase 4 (DPP-4) (protein)
chain: NKGTDDATADSRKTYTLTDYLKNTYRLKLYSLRWISDHEYLYKQENNILVFNAEYGNSSVFLENSTFDEFGHSINDYSISPDGQFILLEYNYVKQWRHSYTASYDIYDLNKRQLITEERIPNNTQWVTWSPVGHKLAYVWNNDIYVKIEPNLPSYRITWTGKEDIIYNGITDWVYEEEVFSAYSALWWSPNGTFLAYAQFNDTEVPLIEYSFYSDESLQYPKTVRVPYPKAGAVNPTVKFFVVNTDSLSSVTNATSIQITAPASMLIGDHYLCDVTWATQERISLQWLRRIQNYSVMDICDYDESSGRWNCLVARQHIEMSTTGWVGRFRPSEPHFTLDGNSFYKIISNEEGYRHICYFQIDKKDCTFITKGTWEVIGIEALTSDYLYYISNEYKGMPGGRNLYKIQLSDYTKVTCLSCELNPERCQYYSVSFSKEAKYYQLRCSGPGLPLYTLHSSVNDKGLRVLEDNSALDKMLQNVQMPSKKLDFIILNETKFWYQMILPPHFDKSKKYPLLLDVYAGPCSQKADTVFRLNWATYLASTENIIVASFDGRGSGYQGDKIMHAINRRLGTFEVEDQIEAARQFSKMGFVDNKRIAIWGWSYGGYVTSMVLGSGSGVFKCGIAVAPVSRWEYYDSVYTERYMGLPTPEDNLDHYRNSTVMSRAENFKQVEYLLIHGTADDNVHFQQSAQISKALVDVGVDFQAMWYTDEDHGIASSTAHQHIYTHMSHFIKQCFSLP
  phosphorylation level of ERK or Akt (western blot): when the eNOS-deficient mice treated with IGF-1 was treated with DPP-4, the phosphorylation level of ERK or Akt which is the protein involved in intracellular signaling was reduced

Source: US20180031580
